The target in assay [1] is T1, human ASGPR (ASGPR-H1 and ASGPR-H2 subunits) (human, UniProt P07306 2-291; P07307 2-311).
T1 construct: Plasmids for H1 and H2 transfected in a ratio of 2:1 into HeLa cells; also called Asialoglycoprotein receptor
T1 sequence 1: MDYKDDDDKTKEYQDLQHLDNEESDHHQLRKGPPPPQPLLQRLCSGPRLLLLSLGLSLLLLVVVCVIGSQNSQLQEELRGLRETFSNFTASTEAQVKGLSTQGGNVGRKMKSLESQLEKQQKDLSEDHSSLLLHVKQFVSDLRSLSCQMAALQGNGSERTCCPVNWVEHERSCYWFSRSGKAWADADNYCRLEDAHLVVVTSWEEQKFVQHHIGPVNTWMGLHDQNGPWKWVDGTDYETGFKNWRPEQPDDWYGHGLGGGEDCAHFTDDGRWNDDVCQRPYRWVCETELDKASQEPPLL
T1 sequence 2: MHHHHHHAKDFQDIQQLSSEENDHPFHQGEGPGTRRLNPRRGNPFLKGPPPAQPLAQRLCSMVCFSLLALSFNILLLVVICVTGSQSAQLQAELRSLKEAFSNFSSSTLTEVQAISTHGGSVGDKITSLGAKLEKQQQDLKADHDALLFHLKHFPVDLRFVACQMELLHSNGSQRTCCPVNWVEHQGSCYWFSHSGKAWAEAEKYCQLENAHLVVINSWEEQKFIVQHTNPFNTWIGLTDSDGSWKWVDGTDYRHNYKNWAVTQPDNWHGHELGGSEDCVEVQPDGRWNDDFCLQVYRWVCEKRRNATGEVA
The experiment in a line: flow cytometry on HeLa/ASGPR/BirA cells.

For assay [2], the target named is T2, human IL6R (Accession no. NP_000556) (human, UniProt P08887 20-468).
T2 construct: whole, on cells; Expressed on Flp-In-CHO cells (IL6R+CHO)
T2 sequence (looked up): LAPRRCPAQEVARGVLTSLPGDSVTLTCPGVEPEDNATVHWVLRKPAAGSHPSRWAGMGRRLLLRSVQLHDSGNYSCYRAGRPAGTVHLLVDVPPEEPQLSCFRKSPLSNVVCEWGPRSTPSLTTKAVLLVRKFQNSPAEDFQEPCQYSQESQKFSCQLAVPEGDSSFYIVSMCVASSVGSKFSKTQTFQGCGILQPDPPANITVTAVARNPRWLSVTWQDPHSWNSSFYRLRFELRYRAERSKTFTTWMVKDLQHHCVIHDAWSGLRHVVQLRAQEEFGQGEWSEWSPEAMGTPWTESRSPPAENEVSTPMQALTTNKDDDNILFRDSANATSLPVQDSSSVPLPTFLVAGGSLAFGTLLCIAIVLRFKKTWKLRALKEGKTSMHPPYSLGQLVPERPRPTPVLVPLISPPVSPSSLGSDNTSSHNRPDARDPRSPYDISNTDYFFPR
The experiment in a line: flow cytometry on HeLa/BirA cells transfected with human IL6R; antibody at 1 micro M in the sorting step. The method, then: To select cells stably expressing IL6R, antibiotic resistant cells were incubated with 1 micro M of anti-IL6R antibody PF1H-G4T1K439E.Avi/PF1L-KT0 (heavy chain, PF1H-G4T1K439E.Avi (SEQ ID NO: 66); light chain, PF1L-KT0 (SEQ ID NO: 67) in MACS buffer (Auto MACS Rinsing Solution (Miltenyi Biotec, Cat #130-091-222) and MACS BSA Stock Solution (Miltenyi Biotec, Cat #1130-091-376)) for 30 min on ice. After wash in MACS buffer, cells were further incubated with R-phycoerythrin (PE) labelled anti-kappa antibody (Southern Biotech, Cat #2060-09) for 30 min on ice in MACS buffer. After wash in MACS buffer, cells expressing IL6R were sorted by FACSAria IIu sorter (Becton Dickinson). Selected clones were then expanded. Flow cytometry using anti-IL6R antibody PF1H-G4T1K439E.Avi/PF1L-KT0 and R-phycoerythrin (PE) labelled anti-kappa antibody (Southern Biotech, Cat #2060-09) with FACS Verse (Becton Dickinson) confirmed high expression of IL6R. BirA expression was also confirmed by capillary immunoassay using Simple Western Wes (Protein Simple).

B1: anti-ASGPR antibody AGA0008Ha-G4T1K439E.Avi/AGA0008La-kOMC (antibody, human IgG4 S228P, kappa, V domains shown)
VH: QSVEESGGRLVTPGTPLTLTCTVSGFSLSSYAMGWVRQAPGKGLEYIGFINTGGSPYYASWAKGRFTISRTSTTVDLKMTSPTTEDTATYFCARDYDTSSGYYGYFNLWGPGTLVTVSS
VL: AQVLTQTPASVSAAVGGTVTIKCQASENIDSYLAWYQQKPGQPPKLLIYRASTLASGVPSRFKGSGSGTPFTLTISDLECADAATYYCQRYVSLNSGDAFGGGTKVEIKR
Regarding B1, the binding result in assay [1] was “binds”.

B2: anti-IL6R antibody PF1H-G4T1K439E.Avi/PF1L-KT0 (antibody, human IgG4 S228P, kappa, V domains shown)
VH: QVQLQESGPGLVKPSETLSLTCAVSGYSISDDHAWSWVRQPPGEGLEWIGYISYSGITNYNPSLKGRVTISRDTSKNQFSLKLSSVTAADTAAYYCARVLARITAMDYWGEGTLVTVSS
VL: DIQMTQSPSSLSASVGDSVTITCQASQDISSYLNWYQQKPGKAPELLIYYGSELHSGVPSRFSGSGSGTDFTFTISSLEAEDAATYYCGQGNRLPYTFGQGTKVEIER
Turning to B2, the binding result in assay [2] is on record as “binds”.

Source of the values: US20210292409A1 (Chugai, published 2021).
